Assays:
[1] = Cocaine hydrolysis activity in vitro (clearance assay with conditioned medium)
[2] = system: epidermal progenitor cells; assay: Suicide gene-induced cell death in epidermal progenitor cells upon prodrug treatment; assay type: cell-based; settings: ganciclovir and 5-fluorocytosine, respectively; data not shown
Text: To test this possibility, a Rosa26 targeting vector encoding phenylalanine ammonia lyase (PAL) (SEQ ID NO: 51) together with inducible “suicide” genes HSV-TK (Herpes Simplex Virus Thymidine Kinase) (SEQ ID NO: 52) and yCD (yeast cytosine deaminase) (SEQ ID NO: 53) was used for epidermal progenitor cell transfection.

[3] = mGLP1 expression in blood/plasma of grafted mice fed dox food; assay type: in vivo, mouse
Method: The epidermal progenitor cells were isolated from newborn pups of CD1 or C57BL/6J mice. […] Targeted clones were selected in the medium containing puromycin, and correct incorporation into the Rosa26 locus was confirmed by PCR and southern blots (FIG. 25B). Mouse skin substitute was prepared by seeding the targeted cells to the acellularized newborn dermis and differentiation upon exposure to the air/liquid interphase and the resultant tissues were transplanted to CD1 or C57BL/6J mice (GLP1).
Expression of mGLP1 in GLP1 mice was stable for up to 4 months in the presence of dox (FIG. 25D).
There was a dose-dependent release of GLP1 in plasma (not shown). Expression of mGLP1 in mGLP1 mice was stable for up to 4 months in the presence of dox (FIG. 25D).

[4] = Ethanol-induced CPP in GLP1 and GWT mice; assay type: in vivo, mouse; settings: 2 g/kg ethanol i.p., dox food, vs mock grafted (GWT)
Text: FIG. 26. mGLP1 expression on ethanol-induced CPP. […] Following 2 free explorations (Pre-test) on day 1, separate groups of GLP1 and GWT mice (n=9 each) received alternative ethanol (2 g/kg) and saline i.p. injections twice daily for the next 4 days, as previously described (Chen et al., Dopamine D1 and D3 receptors are differentially involved in cue-elicited cocaine seeking. J. Neurochem. 114, 530-541 (2010); Kong et al., Activation of dopamine D3 receptors inhibits reward-related learning induced by cocaine. Neurosci. 176, 152-161 (2011)). CPP expression was tested on day 6. Results represent mean±SEM time spent on the drug-paired side minus the saline-paired side. […] F value was calculated and Newman-Keuls post-hoc test was performed (Chen et al., 2010; Kong et al., 2011). […]
(§1) Following 2 free explorations (Pre-test) on day 1, separate groups of GLP1 and GWT mice (n=9 each) received alternative ethanol (2 g/kg) and saline i.p. injections twice daily for the next 4 days, as previously described (Chen et al., Dopamine D1 and D3 receptors are differentially involved in cue-elicited cocaine seeking. J. Neurochem. 114, 530-541 (2010); Kong et al., Activation of dopamine D3 receptors inhibits reward-related learning induced by cocaine. Neurosci. 176, 152-161 (2011)). […] F value was calculated and Newman-Keuls post-hoc test was performed (Chen et al., 2010; Kong et al., 2011). […]

[5] = Nicotine-induced CPP in GLP1 and GWT mice; assay type: in vivo, mouse; settings: 0.4 mg/kg nicotine i.p., dox food, vs GWT
Method: FIG. 29 mGLP1 expression on nicotine-induced CPP. […] Following 2 free explorations (Pre-test) on day 1, separate groups of GLP1 and GWT mice (n=7 each) received alternative nicotine (0.4 mg/kg) and saline i.p. injections twice daily for the next 4 days, as previously described (Chen et al., 2010; Kong et al., 2011). CPP expression was tested on day 6. Results represent mean±SEM time spent on the drug-paired side minus the saline-paired side. Repeated-measures ANOVA with test days as the within group factor and status of grafting as the between-subject factor were used (Chen et al., 2010; Kong et al., 2011). F value was calculated and Newman-Keuls post-hoc test was performed (Chen et al., 2010; Kong et al., 2011). GLP1 and WT mice were on dox food for the entire duration.
as §1, with “mGLP1” for “GLP1”, “(n=7” for “mice (n=9”, “nicotine (0.4 mg/kg)” for “ethanol (2 g/kg)”

B1: mBChE: mouse BChE with similar point mutations (SEQ ID NO: 43) (protein)
chain: MQTQHTKVTQTHFLLWILLLCMPFGKSHTEEDFIITTKTGRVRGLSMPVLGGTVTAFLGIPYAQPPLGSLRFKKPQPLNKWPDIHNATQYANSCYQNIDQAFPGFQGSEMWNPNTNLSEDCLYLNVWIPVPKPKNATVMVWIYGGGFQTGTSSLPVYDGKFLARVERVIVVSMNYRVGALGFLAFPGNPDAPGNMGLFDQQLALQWVQRNIAAFGGNPKSITIFGESSGAASVSLHLLCPQSYPLFTRAILESGSANAPWAVKHPEEARNRTLTLAKFTGCSKENEMEMIKCLRSKDPQEILRNERFVLPSDSALGINFGPTVDGDFLTDMPHTLLQLGKVKKAQILVGVNKDEGTWFLVGGAPGFSKDNDSLITRKEFQEGLNMYFPGVSRLGKEAVLFYYVDWLGEQSPEVYRDALDDVIGDYNIICPALEFTKKFAELENNAFFYFFEHRSSKLPWPEWMGVMHGYEIEFVFGLPLGRRVNYTRAEEIFSRSIMKTWANFAKYGHPNGTQGNSTMWPVFTSTEQKYLTLNTEKSKIYSKLRAPQCQFWRLFFPKVLEMTGDIDETEQEWKAGFHRWSNYMMDWQNQFNDYTSKKESCTAL
modifications: Mouse mutant BChE
[1]
  cocaine hydrolysis activity of conditioned medium: only residual activity in cocaine hydrolysis

B2: yCD: inducible suicide gene, yeast cytosine deaminase (SEQ ID NO: 53), prodrug 5-fluorocytosine (protein)
chain: MVTGGMASKWDQKGMDIAYEEAALGYKEGGVPIGGCLINNKDGSVLGRGHNMRFQKGSATLHGEISTLENCGRLEGKVYKDTTLYTTLSPCDMCTGAIIMYGIPRCVVGENVNFKSKGEKYLQTRGHEVVVVDDERCKKIMKQFIDERPQDWFEDIGE
modifications: misc_feature 1..474 yCD
[2]
  cell death upon prodrug treatment: efficiently induced cell death upon treatment with prodrugs

B3: mGLP1: Gly8-mutant mGLP1 and mouse IgG-Fc fragment fusion protein (SEQ ID NO: 45), dox-dependent promoter, from skin grafts (protein)
chain: MYRMQLLSCIALSLALVTNSHGEGTFTSDVSSYLEGQAAKEFIAWLVKGRGRSGCKPCICTVPEVSSVFIFPPKPKDVLTITLTPKVTCVVVDISKDDPEVQFSWFVDDVEVHTAQTQPREEQFNSTFRSVSELPIMHQDWLNGKEFKCRVNSAAFPAPIEKTISKTKGRPKAPQVYTIPPPKEQMAKDKVSLTCMITDFFPEDITVEWQWNGQPAENYKNTQPIMDTDGSYFVYSKLNVQKSNWEAGNTFTCSVLHEGLHNHHTEKSLSHSPGK
modifications: mGLP-1 (GLY8 mutant with IgG-Fc fusion)
[3]; dox food
  time to significantly enhanced levels of mGLP1 in the blood: ≤ 3 days
[3]; in the presence of dox
  duration of stable mGLP1 expression: up to 4 months
[3]; not shown
  release of mGLP1 in plasma vs dox dose: dose-dependent release of mGLP1 in plasma
[4]
  ethanol-induced CPP: attenuated ethanol-induced CPP
[5]
  nicotine-induced CPP: attenuated nicotine-induced CPP

Reference: patent US20230392126A1, “TISSUE ORGANOIDS” (priority 2016, published 2023)
